Paper PMC6181439 (2018)

Columns and labels:
[1] = target: T1, Recombinant mouse PrP full length (23-230) (mouse, UniProt P04925 23-230); test: SPR
[2] = target: T1, Recombinant mouse PrP full length …; test: SPR; remark: listed apart in the source

T1 sequence (P04925 23-230): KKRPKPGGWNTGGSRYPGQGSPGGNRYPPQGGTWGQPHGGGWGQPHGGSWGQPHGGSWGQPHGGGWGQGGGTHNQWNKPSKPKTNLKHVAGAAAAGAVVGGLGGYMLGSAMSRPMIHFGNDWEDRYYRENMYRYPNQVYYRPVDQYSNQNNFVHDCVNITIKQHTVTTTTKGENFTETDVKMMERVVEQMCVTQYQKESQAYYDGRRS

B1: scPOM2 (scFv, V domains shown)
VH: VKLQESGGEVVRPGTSVKVSCKASGYAFTNYLIEWVKQRPGQGLEWIGVINPGSGDTNYNEKFKGKATLTADKSSSTAYMQLNSLTSDDSAVYFCARSGAAAPTYYAMDYWGQGVSVTVSS
VL: DIVMTQSHKFMSTSVGDRVSITCKASQVGTALAWYQQKPGQSPKLLIYWASTRHTGVPDRFTGSGSGTDFTLTISNVQSEDLSDYFCQQYSSYPTFGGGTKLEIK
[1]
  koff: 0.00036 s⁻¹
[2]
  Kd: 23 nM

B2: Full IgG POM2 monoclonal antibody (antibody, V domains shown)
VH: VKLQESGGEVVRPGTSVKVSCKASGYAFTNYLIEWVKQRPGQGLEWIGVINPGSGDTNYNEKFKGKATLTADKSSSTAYMQLNSLTSDDSAVYFCARSGAAAPTYYAMDYWGQGVSVTVSS
VL: DIVMTQSHKFMSTSVGDRVSITCKASQVGTALAWYQQKPGQSPKLLIYWASTRHTGVPDRFTGSGSGTDFTLTISNVQSEDLSDYFCQQYSSYPTFGGGTKLEIK
[1]
  koff: 9.5e-06 s⁻¹
[2]
  Kd: 0.1 nM
